Experimental data reported in the RNAGym collection of RNA variant scans (doi:10.7554/elife.90254).

B1: LINE1-mini (parent)
chain: GGCAGAGCUCAACACAGCGUGGCAAAGUGGCUGUGGCUAGACUGCC

Variants of: B1
Assay: self-cleavage, relative activity (ratio to wild type); higher = more cleavage; in vitro, sequencing; the parent is a self-cleaving ribozyme

| Variant | self-cleavage |
| --- | --- |
| C8U A24G | 0.14 |
| C8U A24C | 0.24 |
| C8U A24U | 0.33 |
| C8U G29A | 0.21 |
| C8U G29C | 0.1 |
| C8U G29U | 0.46 |
| C8U G27C | 0.11 |
| C8U G27U | 0.14 |
| C8U G27A | 0.14 |
| C8U C31G | 0.17 |
| C8U C31A | 0.21 |
| C8U C31U | 0.14 |
| C8U A26U | 0.36 |
| C8U A26C | 0.21 |
| C8U A26G | 0.29 |
| C8G G29U | 0.11 |
| C8G G29A | 0.06 |
| C8G G29C | 0.04 |
| C8U G21U | 0.25 |
| C8U G21A | 0.39 |
| C8U G21C | 0.25 |
| C8G G30U | 0.2 |
| C8G G30A | 0.21 |
| C8G G30C | 0.1 |

| Variant | self-cleavage |
| --- | --- |
| C8U C45G | 0.46 |
| C8U C45A | 0.21 |
| C8U C45U | 0.32 |
| U9A | 0.17 |
| C8G G27C | 0.1 |
| C8G G27A | 0.17 |
| C8G G27U | 0.11 |
| C8G U34G | 0.08 |
| C8G U34C | 0.04 |
| C8G U34A | 0.05 |
| C8U C42U | 0.17 |
| C8U C42A | 0.11 |
| C8U C42G | 0.13 |
| C8U C15U | 0.25 |
| C8U C15A | 0.11 |
| C8U C15G | 0.09 |
| C8G U38G | 0.32 |
| C8G U38A | 0.06 |
| C8G U38C | 0.05 |
| C8U A11U | 0.03 |
| C8U A11C | 0.07 |
| C8U A11G | 0.03 |
| C8U C37A | 0.14 |
| C8U C37U | 0.2 |

| Variant | self-cleavage |
| --- | --- |
| C8U C37G | 0.07 |
| C8G G21C | 0.06 |
| C8G G21U | 0.13 |
| C8U C18G | 0.23 |
| C8U C18A | 0.18 |
| C8U C18U | 0.14 |
| C8U A14C | 0.15 |
| C8U A14U | 0.09 |
| C8U A14G | 0.19 |
| C8U U32G | 0.1 |
| C8U U32C | 0.12 |
| C8U U32A | 0.1 |
| C8U U38A | 0.27 |
| C8U U38G | 0.04 |
| C8U U38C | 0.22 |
| C8U G17A | 0.15 |
| C8U G17C | 0.16 |
| C8U G17U | 0.14 |
| C8G U32C | 0.06 |
| C8G U32G | 0.06 |
| C8G U32A | 0.04 |
| C8G G35A | 0.13 |
| C8G G35C | 0.06 |
| C8G G35U | 0.2 |

| Variant | self-cleavage |
| --- | --- |
| C8U A25G | 0.13 |
| C8U A25U | 0.18 |
| C8U A25C | 0.21 |
| C8U U28G | 0.13 |
| C8U U28C | 0.2 |
| C8U U28A | 0.19 |
| C8U A39G | 0.05 |
| C8U A39C | 0.2 |
| C8U A39U | 0.09 |
| C8G U28G | 0.06 |
| C8G U28C | 0.46 |
| C8G U28A | 0.05 |
| C8U G22C | 0.15 |
| C8U G22A | 0.15 |
| C8U G22U | 0.16 |
| U9A A11C | 0.02 |
| C8U G19U | 0.24 |
| C8U G19C | 0.17 |
| C8U G19A | 0.35 |
| C8G G22A | 0.1 |
| C8G G22U | 0.09 |
| C8G G22C | 0.06 |
| C8G G44A | 0.04 |
| C8G G44U | 0.04 |

| Variant | self-cleavage |
| --- | --- |
| C8G G44C | 0.05 |
| C8U C23U | 0.25 |
| C8U C23G | 0.29 |
| C8U C23A | 0.21 |
| C8G U20A | 0.08 |
| C8G U20G | 0.09 |
| C8G U20C | 0.08 |
| C8U | 0.29 |
| C8G U9G | 0.12 |
| C8G U9C | 0.02 |
| C8G U9A | 0.21 |
| C8U C46A | 0.33 |
| C8U C46U | 0.56 |
| C8U C46G | 0.2 |
| C8U A41G | 0.2 |
| C8U A41C | 0.16 |
| C8U A41U | 0.47 |
| C8U U9C | 0.06 |
| C8U U9G | 0.09 |
| C8U U9A | 0.32 |
| C8U G44C | 0.08 |
| C8U G44A | 0.39 |
| C8U G44U | 0.35 |
| C8U U34C | 0.18 |

| Variant | self-cleavage |
| --- | --- |
| C8U U34A | 0.1 |
| C8U U34G | 0.22 |
| C8G U43G | 0.88 |
| C8G U43C | 0.02 |
| C8G U43A | 0.03 |
| C8U U20G | 0.12 |
| C8U U20C | 0.09 |
| C8U U20A | 0.21 |
| C8G G33C | 0.04 |
| C8G G33A | 0.12 |
| C8G G33U | 0.03 |
| C8U C10A | 0.03 |
| C8U C10G | 0.02 |
| C8U C10U | 0.08 |
| C8U G33U | 0.16 |
| C8U G33A | 0.15 |
| C8U G33C | 0.07 |
| C8G G36A | 0.18 |
| C8G G36U | 0.07 |
| C8G G36C | 0.08 |
| C8U U43A | 0.08 |
| C8U U43C | 0.16 |
| C8U U43G | 0.12 |
| C8U G35C | 0.09 |

| Variant | self-cleavage |
| --- | --- |
| C8U G35A | 0.32 |
| C8U G35U | 0.42 |
| C8U G40A | 0.41 |
| C8U G40U | 0.29 |
| C8U G40C | 0.13 |
| C8U A12G | 0.08 |
| C8U A12C | 0.04 |
| C8U A12U | 0.29 |
| C8U G30A | 0.24 |
| C8U G30U | 0.29 |
| C8U G30C | 0.26 |
| C8U C13U | 0.81 |
| C8U C13G | 0.29 |
| C8U C13A | 0.5 |
| C8U G36U | 0.2 |
| C8U G36C | 0.27 |
| C8U G36A | 0.77 |
| C8G G40U | 0.09 |
| C8G G40C | 0.09 |
| C8G G40A | 0.13 |
| C8U A16U | 0.13 |
| C8U A16G | 0.16 |
| C8U A16C | 0.13 |
